# Data: patent US20210145976A1 (ARO BIOTHERAPEUTICS, published 2021)
# Numbering of substitutions follows the chain as printed.
# B1: SEQ ID NO 251 (designed binder)
# chain: MLPAPKNLVVSRVTEDSARLSWTAPDAAFDSFFIGYLEPQPPGEAIVLTVPGSERSYDLTGLKPGTEYNVTIQGVKGGFPSMPLSAIVTT
# notes: FN3 domain
# B2: SEQ ID NO 254 (designed binder)
# chain: MLPAPKNLVVSRVTEDSARLSWTAPDAAFDSFFIPYAEPSPTGEAIVLTVPGSERSYDLTGLKPGTEYSVLIHGVKGGHLSDPLSAISTT
# notes: FN3 domain
# B3: SEQ ID NO 255 (designed binder)
# chain: MLPAPKNLVVSRVTEDSARLSWTAPDAAFDSFDIEYYELIGRGEAIVLTVPGSERSYDLTGLKPGTEYWVGIYGVKGGWLSRPLSAIFTT
# notes: FN3 domain
# B4: SEQ ID NO 256 (designed binder)
# chain: MLPAPKNLVVSRVTEDSARLSWTAPDAAFDSFHIVYHEPRPSGEAIVLTVPGSERSYDLTGLKPGTEYEVGIVGVKGGDLSVPLSAIFTT
# notes: FN3 domain
# B5: SEQ ID NO 258 (designed binder)
# chain: B2 chain with S69D, L71W, H73E, H79V, D82W, S88F
# notes: FN3 domain
# B6: SEQ ID NO 262 (designed binder)
# chain: B3 chain with D33A, Y37F, L39Y, I40T, R42E, W69Y, W79Y
# notes: FN3 domain
# B7: SEQ ID NO 263 (designed binder)
# chain: B1 chain with V88S
# notes: FN3 domain
# B8: SEQ ID NO 264 (designed binder)
# chain: MLPAPKNLVVSRVTEDSARLSWTAPDAAFDSFRIKYQEWWVEGEAIVLTVPGSERSYDLTGLKPGTEYVVQIAGVKGGLSSYPLSAIFTT
# notes: FN3 domain
# B9: SEQ ID NO 265 (designed binder)
# chain: MLPAPKNLVVSRVTEDSARLSWTAPDAAFDSFWIYYIETSHQGEAIVLTVPGSERSYDLTGLKPGTEYFVLIKGVKGGYDSVPLSAIFTT
# notes: FN3 domain
# B10: SEQ ID NO 267 (designed binder)
# chain: MLPAPKNLVVSRVTEDSARLSWTAPDAAFDSFPIVYSEIHVIGEAIVLTVPGSERSYDLTGLKPGTEYDVWIEGVKGGHLSEPLSAIFTT
# notes: FN3 domain
# B11: SEQ ID NO 268 (designed binder)
# chain: B10 chain with P33T, S37G, I39A, H40G, V41A, I42F, W71L, H79N, E82W
# notes: FN3 domain
# B12: SEQ ID NO 271 (designed binder)
# chain: B2 chain with F33Y, P39T, S40R, P41D, T42D, H79D, D82S, S88F
# notes: FN3 domain
# B13: SEQ ID NO 272 (designed binder)
# chain: B2 chain with F33G, P39S, S40T, S88F
# notes: FN3 domain
# B14: SEQ ID NO 275 (designed binder)
# chain: B2 chain with F33L, P35A, P39V, S40T, P41L, T42H, H79R, L80N, S88F
# notes: FN3 domain
# B15: SEQ ID NO 276 (designed binder)
# chain: B8 chain with K35D, Q37L, W39L, W40T, V41S, E42L, V69P, Q71P, A73L, Y82W
# notes: FN3 domain
# B16: SEQ ID NO 279 (designed binder)
# chain: B3 chain with D33S, L39S, I40V, R42L, W69D, G71S, W79Y
# notes: FN3 domain
# B17: SEQ ID NO 282 (designed binder)
# chain: B4 chain with H33A, S42D, G71V, V73L, D79V, L80H, V82Y
# notes: FN3 domain
# B18: SEQ ID NO 283 (designed binder)
# chain: B2 chain with F33P, P35A, S40R, T42D, H79L, D82S, S88F
# notes: FN3 domain
# B19: SEQ ID NO 285 (designed binder)
# chain: B2 chain with F33L, P39T, T42S, H79D, L80Y, D82S, S88F
# notes: FN3 domain
# B20: SEQ ID NO 287 (designed binder)
# chain: MLPAPKNLVVSRVTEDSARLSWTAPDAAFDSFTIEYHESGPVGEAIVLTVPGSERSYDLTGLKPGTEYMVWIFGVKGGFVSRPLSAIFTT
# notes: FN3 domain
# B21: SEQ ID NO 288 (designed binder)
# chain: B2 chain with F33L, P39T, T42S, H79D, L80Y, D82S
# notes: FN3 domain
# B22: SEQ ID NO 289 (designed binder)
# chain: MLPAPKNLVVSRVTEDSARLSWTAPDAAFDSFAIPYYEDTNDGEAIVLTVPGSERSYDLTGLKPGTEYWVSIQGVKGGTVSGPLSAIFTT
# notes: FN3 domain
# B23: SEQ ID NO 293 (designed binder)
# chain: B3 chain with D33T, Y37W, L39F, I40T, R42S, W69D, G71S, R82Y
# notes: FN3 domain
# B24: SEQ ID NO 295 (designed binder)
# chain: B1 chain with Q40I, P42S, N69P, T71V, F79H, M82Q, V88F
# notes: FN3 domain
# B25: SEQ ID NO 298 (designed binder)
# chain: B2 chain with F33P, P35A, S40R, T42D, H79L, D82S
# notes: FN3 domain
# B26: SEQ ID NO 300 (designed binder)
# chain: B1 chain with Q73H, F79T, V88F
# notes: FN3 domain
# B27: SEQ ID NO 304 (designed binder)
# chain: B3 chain with D33I, E35T, Y37W, L39H, I40V, R42D, W69F, G71E, W79Y, R82K
# notes: FN3 domain
# B28: SEQ ID NO 305 (designed binder)
# chain: MLPAPKNLVVSRVTEDSARLSWTAPDAAFDSFEIDYDEPFVYGEAIVLTVPGSERSYDLTGLKPGTEYRVFIFGVKGGNGSWPLSAIFTT
# notes: FN3 domain
# B29: SEQ ID NO 306 (designed binder)
# chain: B3 chain with D33Y, Y37F, L39T, I40Q, R42Y, W69Y, G71A, W79Y
# notes: FN3 domain
# B30: SEQ ID NO 81 (designed binder)
# chain: MLPAPKNLVVSRVTEDSARLSWTAPDAAFDSFVIEYREGAWYGEAIVLTVPGSERSYDLTGLKPGTEYAVYIPGVKGGPRSFPLSAIFTT
# notes: FN3 domain
# B31: SEQ ID NO 84 (designed binder)
# chain: MLPAPKNLVVSRVTEDSARLSWTAPDAAFDSFPIYYWEVFPAGEAIELDVPGSERSYDLTGLKPGTEYFVRIEGVKGGASSYPLRAEFTT
# notes: FN3 domain
# B32: SEQ ID NO 87 (designed binder)
# chain: MLPAPKNLVVSRVTEDSARLSWTAPDAAFDSFAIEYYEPVPAGEAIYLDVPGSERSYDLTGLKPGTEYDVTIYGVKGGYYSHPLFASFTT
# notes: FN3 domain
# B33: SEQ ID NO 89 (designed binder)
# chain: MLPAPKNLVVSRVTEDSARLSWTAPDAAFDSFHISYEETPVVGEAIYLRVPGSERSYDLTGLKPGTEYTVAIHGVKGGRESTPLIAPFTT
# notes: FN3 domain
# B34: SEQ ID NO 91 (designed binder)
# chain: B10 chain with P33V, V35E, S37W, I39R, H40T, V41Q, I42P, E73S, H79K, L80W
# notes: FN3 domain
# B35: SEQ ID NO 94 (designed binder)
# chain: MLPAPKNLVVSRITEDSARLSWTAPDAAFDSFGIYYYEWWSTGEAIVLTVPGSERSYDLTGPKPGTEYYVKISGVKGGYRSYPLSAIFTT
# notes: FN3 domain
# B36: SEQ ID NO 97 (designed binder)
# chain: MLPAPKNLVVSRVTEDSARLSWTAPDAAFDSFFISYFEGWASGEAIHLYVPGSERSYDLTGLKPGTEYSVHIQGVKGGQPSTPLSAIFTT
# notes: FN3 domain
# B37: SEQ ID NO 99 (designed binder)
# chain: MLPAPKNLVVSRVTEDSARLSWTAPDAAFDSFGIQYNEFVFRGEAIVLTVPGSERSYDLTGLKPGTEYFVPISGVKGGDDSRPLSAIFTT
# notes: FN3 domain
# B38: SEQ ID NO 100 (designed binder)
# chain: B3 chain with D33W, Y37W, L39V, I40V, R42F, W79N, L80P, R82V
# notes: FN3 domain
# Target: T1, recombinant biotinylated CD71 extracellular domain (Sino Biologics) with an N-terminal 6His tag (human, UniProt P02786 89-760, biotinylated (sites not given))
# T1 construct: extracellular domain; also called hCD71; huCD71
# T1 sequence (P02786 other isoform, or with tags, fused parts or gaps): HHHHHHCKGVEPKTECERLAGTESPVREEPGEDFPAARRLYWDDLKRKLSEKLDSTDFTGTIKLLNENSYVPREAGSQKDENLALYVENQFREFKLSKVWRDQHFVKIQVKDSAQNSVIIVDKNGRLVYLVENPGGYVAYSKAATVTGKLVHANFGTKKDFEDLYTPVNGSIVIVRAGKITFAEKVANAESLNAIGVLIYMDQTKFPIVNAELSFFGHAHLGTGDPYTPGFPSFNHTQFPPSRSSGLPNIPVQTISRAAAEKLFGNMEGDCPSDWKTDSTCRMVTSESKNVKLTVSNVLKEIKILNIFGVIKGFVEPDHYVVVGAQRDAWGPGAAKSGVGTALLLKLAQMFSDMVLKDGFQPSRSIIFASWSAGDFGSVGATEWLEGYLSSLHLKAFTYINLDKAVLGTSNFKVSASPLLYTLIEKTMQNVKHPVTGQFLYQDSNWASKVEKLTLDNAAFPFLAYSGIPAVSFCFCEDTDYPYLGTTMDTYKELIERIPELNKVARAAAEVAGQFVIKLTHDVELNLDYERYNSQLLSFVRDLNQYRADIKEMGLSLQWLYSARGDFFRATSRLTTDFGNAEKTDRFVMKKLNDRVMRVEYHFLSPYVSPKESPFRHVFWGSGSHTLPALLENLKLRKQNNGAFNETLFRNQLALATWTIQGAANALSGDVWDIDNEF
# Experiment: screening ELISA
row,Binder,hCD71
1,B1,2.74e+06
2,B2,3.24e+06
3,B3,1.84e+06
4,B4,1.98e+06
5,B5,1.04e+06
6,B6,4.38e+06
7,B7,1.88e+06
8,B8,2.98e+06
9,B9,3.61e+06
10,B10,1.97e+06
11,B11,1.6e+06
12,B12,2.11e+06
13,B13,1.78e+06
14,B14,2.25e+06
15,B15,720000
16,B16,4.09e+06
17,B17,3.85e+06
18,B18,2.95e+06
19,B19,2.44e+06

row,Binder,hCD71
1,B20,3.88e+06
2,B21,659000
3,B22,2.27e+06
4,B23,3.59e+06
5,B24,3.38e+06
6,B25,2.51e+06
7,B26,2.31e+06
8,B27,3.34e+06
9,B28,1.21e+06
10,B29,4.07e+06
11,B30,537000
12,B31,1.73e+06
13,B32,2.83e+06
14,B33,3.44e+06
15,B34,1.44e+06
16,B35,439000
17,B36,2.41e+06
18,B37,853000
19,B38,2.95e+06

# Target: T1, recombinant biotinylated CD71 …
# Experiment: screening ELISA, ratio
row,Binder,hCD71:HSA
1,B1,284
2,B2,36
3,B3,403
4,B4,900
5,B5,98
6,B6,1860
7,B7,92
8,B8,1170
9,B9,913
10,B10,166
11,B11,626
12,B12,693
13,B13,199
14,B14,591
15,B15,58
16,B16,1300
17,B17,206
18,B18,472
19,B19,1110

row,Binder,hCD71:HSA
1,B20,706
2,B21,16
3,B22,1060
4,B23,520
5,B24,891
6,B25,74
7,B26,571
8,B27,1240
9,B28,48
10,B29,1810
11,B30,19
12,B31,449
13,B32,2580
14,B33,1720
15,B34,800
16,B35,44
17,B36,1090
18,B37,105
19,B38,1260
